Reference: publication PMC3932411

Tests used:
[1] = cell surface biotinylation, Western blot; settings: glycan lost; control: wild type
I-V relationship = settings: glycan lost; control: wild type

B1: TRPM5: N932Q (protein)
parent chain: MQDVQGPRPGSPGDAEDRRELGLHRGEVNFGGSGKKRGKFVRVPSGVAPSVLFDLLLAEWHLPAPNLVVSLVGEEQPFAMKSWLRDVLRKGLVKAAQSTGAWILTSALRVGLARHVGQAVRDHSLASTSTKVRVVAVGMASLGRVLHRRILEEAQEDFPVHYPEDDGGSQGPLCSLDSNLSHFILVEPGPPGKGDGLTELRLRLEKHISEQRAGYGGTGSIEIPVLCLLVNGDPNTLERISRAVEQAAPWLILVGSGGIADVLAALVNQPHLLVPKVAEKQFKEKFPSKHFSWEDIVRWTKLLQNITSHQHLLTVYDFEQEGSEELDTVILKALVKACKSHSQEPQDYLDELKLAVAWDRVDIAKSEIFNGDVEWKSCDLEEVMVDALVSNKPEFVRLFVDNGADVADFLTYGRLQELYRSVSRKSLLFDLLQRKQEEARLTLAGLGTQQAREPPAGPPAFSLHEVSRVLKDFLQDACRGFYQDGRPGDRRRAEKGPAKRPTGQKWLLDLNQKSENPWRDLFLWAVLQNRHEMATYFWAMGQEGVAAALAACKILKEMSHLETEAEAARATREAKYERLALDLFSECYSNSEARAFALLVRRNRCWSKTTCLHLATEADAKAFFAHDGVQAFLTRIWWGDMAAGTPILRLLGAFLCPALVYTNLITFSEEAPLRTGLEDLQDLDSLDTEKSPLYGLQSRVEELVEAPRAQGDRGPRAVFLLTRWRKFWGAPVTVFLGNVVMYFAFLFLFTYVLLVDFRPPPQGPSGPEVTLYFWVFTLVLEEIRQGFFTDEDTHLVKKFTLYVGDNWNKCDMVAIFLFIVGVTCRMLPSAFEAGRTVLAMDFMVFTLRLIHIFAIHKQLGPKIIVVERMMKDVFFFLFFLSVWLVAYGVTTQALLHPHDGRLEWIFRRVLYRPYLQIFGQIPLDEIDEARVNCSTHPLLLEDSPSCPSLYANWLVILLLVTFLLVTNVLLMNLLIAMFSYTFQVVQGNADMFWKFQRYNLIVEYHERPALAPPFILLSHLSLTLRRVFKKEAEHKREHLERDLPDPLDQKVVTWETVQKENFLSKMEKRRRDSEGEVLRKTAHRVDFIAKYLGGLREQEKRIKCLESQINYCSVLVSSVADVLAQGGGPRSSQHCGEGSQLVAADHRGGLDGWEQPGAGQPPSDT
localisation_or_trafficking [1]: no change | other: channel biophysical properties (I-V relationship): no change
